From patent publication US20100105569A1 (AbbVie / Abbott, published 2010)

What was measured:
[1] = molecular target: biotinylated HA tag peptide; test: mRNA-scFv selected with 50 nM HA; PDI: Yes, RT: No (same value as the 33rd table, row 11, column 5)
[2] = molecular target: biotinylated HA tag peptide; test: mRNA-scFv selected with 50 nM HA; PDI: No, RT: No (same value as the 33rd table, row 10, column 5)
[3] = molecular target: biotinylated HA tag peptide; test: mRNA-scFv selected with 50 nM HA; PDI: Yes, RT before selection without DTT
[4] = molecular target: biotinylated HA tag peptide; test: free scFv selected with 50 nM HA; translated with PDI
[5] = molecular target: biotinylated HA tag peptide; test: free scFv selected with 50 nM HA; translated without PDI
[6] = molecular target: biotinylated HA tag peptide; test: mRNA-scFv (ligated protein) selected with 50 nM HA; translated without PDI
[7] = molecular target: biotinylated HA tag peptide; test: mRNA-scFv (ligated protein) selected with 50 nM HA; translated with PDI
[8] = molecular target: biotinylated HA tag peptide; test: mRNA-scFv selected with 50 nM HA; PDI: Yes, RT before selection with DTT
[9] = molecular target: T1, human IL-12 (biotinylated) (human, UniProt P29459 23-219; P29460 23-328, biotinylated (site and subunit not stated)); test: mRNA-scFv selected with 50 nM IL-12, bead capture, % of input 35S counts recovered
T1 construct: also called hIL-12
T1 sequence (looked up) 1: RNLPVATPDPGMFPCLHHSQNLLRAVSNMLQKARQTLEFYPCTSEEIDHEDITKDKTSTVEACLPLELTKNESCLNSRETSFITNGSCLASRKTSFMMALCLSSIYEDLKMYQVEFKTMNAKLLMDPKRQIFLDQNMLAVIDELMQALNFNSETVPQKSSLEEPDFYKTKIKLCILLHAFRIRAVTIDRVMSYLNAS
T1 sequence (looked up) 2: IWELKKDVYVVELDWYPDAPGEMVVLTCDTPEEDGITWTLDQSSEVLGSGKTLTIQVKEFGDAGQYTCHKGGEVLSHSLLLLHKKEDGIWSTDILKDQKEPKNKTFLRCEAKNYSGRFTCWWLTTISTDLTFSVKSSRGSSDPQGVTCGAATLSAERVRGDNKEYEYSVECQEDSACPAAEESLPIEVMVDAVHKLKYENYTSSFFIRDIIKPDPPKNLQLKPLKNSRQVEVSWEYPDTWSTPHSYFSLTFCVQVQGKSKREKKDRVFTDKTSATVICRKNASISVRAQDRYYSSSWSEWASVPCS

B1: 17/9 scFv (spacer form not stated) (scFv)
scFv: EVQLVESGGGLVQPGRSLRLSCAASGFTFDDYAMHWVRQAPGKGLDWVSAITWNSGHIDYADSVEGRFAVSRDNAKNALYLQMNSLRPEDTAVYYCTKASYLSTSSSLDNWGQGTLVTVSSGGGGSGGGGSGGGGSDIQMTQSPSSLSASIGDRVTITCRASQGIRNYLAWYQQKPGKAPKLLIYAASTLQSGVPSRFSGSGSGTDFTLTISSLQPEDVATYYCQKYNSAPYAFGQGTKVEIKR
For B1, the % of Recovery, HA (50 nM) selection [1] was 12.4%, the % of Recovery, HA (50 nM) selection [2] was 2.3% and the % of Recovery, HA (50 nM) selection [3] was 9.4%. It also gave a % of Recovery, HA (50 nM) selection [4] of 30.5%, a % of Recovery, HA (50 nM) selection [5] of 3.3% and a % of Recovery, HA (50 nM) selection [6] of 2.3%. It also gave a % of Recovery, HA (50 nM) selection [7] of 12.4% and a % of Recovery, HA (50 nM) selection [8] of 2%.

B2: Y61 scFv short (Y61-scCL-short) (scFv)
scFv: MQVQLVQSGGGVVQPGRSLRLSCAASGFTFSSYGMHWVRQAPGKGLEWVAFIRYDGSNKYYADSVKGRFTISRDNSKNTLYLQMKSLRAEDTAVYYCKTHGSHDNWGQGTMVTVSSGGGGSGGGGSGGGGSSYVLTQPPSVSGTPGQRVTISCSGGRSNIGSNTVKWYQQLPGTAPKLLIYGNDQRPSGVPDRFSGSKSGTSASLAITGVQAEDEADYYCQSYDRGTHPALLFGTGTKLTVLGQPKAAPSVTLDYKDDDDKASAI
notes: Human anti-hIL-12 scFv, in vitro translated with 35S-methionine; tested as free protein or as mRNA-scFv (ligated protein), as said under assay; also called Y61-CL-short
B2 was tested, and the “Percent of Recovery, IL-12 (50 nM selection)” value (“Percent … (50 nM selection)” for short) [9] was 21.1%.

B3: Y61-scGene3 (Y61 scFv Gene3) (scFv)
scFv: MQVQLVQSGGGVVQPGRSLRLSCAASGFTFSSYGMHWVRQAPGKGLEWVAFIRYDGSNKYYADSVKGRFTISRDNSKNTLYLQMKSLRAEDTAVYYCKTHGSHDNWGQGTMVTVSSGGGGSGGGGSGGGGSSYVLTQPPSVSGTPGQRVTISCSGGRSNIGSNTVKWYQQLPGTAPKLLIYGNDQRPSGVPDRFSGSKSGTSASLAITGVQAEDEADYYCQSYDRGTHPALLFGTGTKLTVLGQPKAAPSVTLPQPPVNAGGGSGGGSGGGSEGGGSEGGGSEGGGSEGGGSGGGSGSGDFDYEKMANANKGAMTENADENALQSDAKGKLDSVATDYDYKDDDDKASAI
notes: also called PF-y61scGene3
For B3, the “Percent … (50 nM selection)” value [9] was 8%.

B4: Y61-scGene3pA (Y61 scFv Gene3PA) (scFv)
scFv: MQVQLVQSGGGVVQPGRSLRLSCAASGFTFSSYGMHWVRQAPGKGLEWVAFIRYDGSNKYYADSVKGRFTISRDNSKNTLYLQMKSLRAEDTAVYYCKTHGSHDNWGQGTMVTVSSGGGGSGGGGSGGGGSSYVLTQPPSVSGTPGQRVTISCSGGRSNIGSNTVKWYQQLPGTAPKLLIYGNDQRPSGVPDRFSGSKSGTSASLAITGVQAEDEADYYCQSYDRGTHPALLFGTGTKLTVLGQPKAAPSVTLPQPPVNAGGGSGGGSGGGSEGGGSEGGGSEGGGSEGGGSGGGSGSGDFDYEKMANANKGAMTENADENALQSDAKGKLDSVATDYDYKDDDDKASAI
In the case of B4, the “Percent … (50 nM selection)” value [9] is reported as 6.1%.
